± gives the standard deviation of the averaged measurements.
B1: library; a variant is named by its letters at N, in order (parent)
chain: GCUGUCACCGGUGCUUGGUACGUUAUAUUCAGCCGGUCUGAUGAGUCUNNNNNNAGACGAAACAGC

How the values were obtained:
(6R,S)-folinic acid [1] = variants of: B1; experiment: FACS-Seq fitted mean relative fluorescence mCherry/BFP without ligand (log10 relative fluorescence); HEK293T overexpressing SLC46A1; higher = higher reporter protein expression; settings: without (6R,S)-folinic acid; ligand present: no
Summary of the method: (§1)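 Fluorescence figures are normalized fitted normal means of sequenced bin counts. Enriched, lentivirally transduced HEK293T libraries with a ribozyme-switch mCherry reporter and EF1α-BFP were held 48 h with or without ligand, then sorted into 6 mCherry/BFP bins. PCR-amplified, barcoded genomic DNA from each bin was sequenced on MiSeq. Means of log10(mCherry/BFP) were scaled to five spiked-in control ribozymes.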

(6R,S)-folinic acid [2] = variants of: B1; experiment: normalized RNA/DNA level without ligand (relative to sTRSVctl = 100) (log10 (% of sTRSVctl)); HEK293T overexpressing SLC46A1; higher = less ribozyme self-cleavage, higher mRNA level; settings: without (6R,S)-folinic acid; ligand present: no
Procedure: (§2)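 Hammerhead (sTRSV) ribozyme switch libraries with a ligand aptamer grafted on stem I and a randomized N4-6 loop II, cloned into the 3' UTR of mCherry and transiently transfected into HEK293T cells; RNA-Seq 72 h post transfection with ligand added 1 h before transfection; RNA read count / plasmid DNA read count normalized to the non-cleaving sTRSVctl (x100), log10; sequences with >100 DNA reads. FACS-Seq: lentiviral library sorted into 6 bins after 48 h ligand, log-normal fit mean of mCherry/BFP scaled to controls. Printed sequences are partial switch sequences.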

(6R,S)-folinic acid [3] = variants of: B1; experiment: FACS-Seq fitted mean relative fluorescence mCherry/BFP with ligand (log10 relative fluorescence); HEK293T overexpressing SLC46A1; ligand concentration (+) FACS-Seq: 6 mM; higher = higher reporter protein expression; settings: with (6R,S)-folinic acid; ligand present: yes
Summary of the method: as §1

(6R,S)-folinic acid [4] = variants of: B1; experiment: normalized RNA/DNA level with ligand (relative to sTRSVctl = 100) (log10 (% of sTRSVctl)); HEK293T overexpressing SLC46A1; ligand concentration (+) RNA-Seq: 6 mM; higher = less ribozyme self-cleavage, higher mRNA level; settings: with (6R,S)-folinic acid; ligand present: yes
Procedure: as §2

Row | Variant | FACS-Seq fitted mean (log10) ((6R,S)-folinic acid [1]) | normalized RNA/DNA level without ligand (log10) ((6R,S)-folinic acid [2]) | FACS-Seq fitted mean (log10) ((6R,S)-folinic acid [3]) | normalized RNA/DNA level with ligand (log10) ((6R,S)-folinic acid [4])
1 | GCUGUCACCGGUGCUUGGUACGUUAUAUUCAGCCGGUCUGAUGAGUCUGAGUUGAGACGAAACAGC [GAGUUG] | 0.407 ± 0.032 | 1.968 ± 0.0093 | 0.387 ± 0.15 | 2.03 ± 0.039
2 | GCUGUCACCGGUGCUUGGUACGUUAUAUUCAGCCGGUCUGAUGAGUCUCAGUUCAGACGAAACAGC [CAGUUC] | -0.0369 ± 0.035 | 2.027 ± 0.017 | -0.16 ± 0.081 | 1.983 ± 0.019
3 | GCUGUCACCGGUGCUUGGUACGUUAUAUUCAGCCGGUCUGAUGAGUCUCAGUUAAGACGAAACAGC [CAGUUA] | 0.197 ± 0.022 | 1.95 ± 0.02 | 0.573 ± 0.13 | 1.99 ± 0.038
4 | GCUGUCACCGGUGCUUGGUACGUUAUAUUCAGCCGGUCUGAUGAGUCUAAUACCAGACGAAACAGC [AAUACC] | 0.72 ± 0.071 | 2.028 ± 0.004 | 0.469 ± 0.062 | 2.03 ± 0.031
5 | GCUGUCACCGGUGCUUGGUACGUUAUAUUCAGCCGGUCUGAUGAGUCUGAUACAAGACGAAACAGC [GAUACA] | 0.251 ± 0.036 | 1.974 ± 0.0043 | 0.585 ± 0.09 | 1.98 ± 0.047
6 | GCUGUCACCGGUGCUUGGUACGUUAUAUUCAGCCGGUCUGAUGAGUCUGAUAACAGACGAAACAGC [GAUAAC] | 0.223 ± 0.036 | 1.972 ± 0.012 | 0.5 ± 0.022 | 2.01 ± 0.014
7 | GCUGUCACCGGUGCUUGGUACGUUAUAUUCAGCCGGUCUGAUGAGUCUGAUAAAAGACGAAACAGC [GAUAAA] | 0.3694 ± 0.0011 | 1.956 ± 0.0085 | 0.397 ± 0.027 | 2 ± 0.034
8 | GCUGUCACCGGUGCUUGGUACGUUAUAUUCAGCCGGUCUGAUGAGUCUGAUAAUAGACGAAACAGC [GAUAAU] | 0.0792 ± 0.026 | 1.97 ± 0.02 | 0.23 ± 0.02 | 2.01 ± 0.037
9 | GCUGUCACCGGUGCUUGGUACGUUAUAUUCAGCCGGUCUGAUGAGUCUCAUAACAGACGAAACAGC [CAUAAC] | 0.339 ± 0.16 | 1.973 ± 0.0067 | 0.355 ± 0.045 | 1.97 ± 0.038
10 | GCUGUCACCGGUGCUUGGUACGUUAUAUUCAGCCGGUCUGAUGAGUCUCAUAAUAGACGAAACAGC [CAUAAU] | 0.15 ± 0.15 | 1.955 ± 0.011 | 0.294 ± 0.038 | 1.997 ± 0.013
11 | GCUGUCACCGGUGCUUGGUACGUUAUAUUCAGCCGGUCUGAUGAGUCUCAUAAAAGACGAAACAGC [CAUAAA] | 0.548 ± 0.05 | 1.9396 ± 0.0016 | 0.402 ± 0.075 | 1.96 ± 0.033
12 | GCUGUCACCGGUGCUUGGUACGUUAUAUUCAGCCGGUCUGAUGAGUCUUAUAAUAGACGAAACAGC [UAUAAU] | 0.283 ± 0.048 | 1.941 ± 0.0058 | 0.412 ± 0.033 | 1.996 ± 0.016
13 | GCUGUCACCGGUGCUUGGUACGUUAUAUUCAGCCGGUCUGAUGAGUCUUAUAAAAGACGAAACAGC [UAUAAA] | 0.216 ± 0.075 | 1.92 ± 0.0034 | 0.0605 ± 0.19 | 1.97 ± 0.022
14 | GCUGUCACCGGUGCUUGGUACGUUAUAUUCAGCCGGUCUGAUGAGUCUUAUAAGAGACGAAACAGC [UAUAAG] | 0.158 ± 0.15 | 1.688 ± 0.0045 | 0.476 ± 0.26 | 1.93 ± 0.027
15 | GCUGUCACCGGUGCUUGGUACGUUAUAUUCAGCCGGUCUGAUGAGUCUAAUAAUAGACGAAACAGC [AAUAAU] | 0.5328 ± 0.0041 | 1.968 ± 0.0071 | 0.56 ± 0.14 | 2.003 ± 0.011
16 | GCUGUCACCGGUGCUUGGUACGUUAUAUUCAGCCGGUCUGAUGAGUCUAAUAAAAGACGAAACAGC [AAUAAA] | -0.274 ± 0.037 | 1.971 ± 0.009 | -0.301 ± 0.1 | 2 ± 0.025
17 | GCUGUCACCGGUGCUUGGUACGUUAUAUUCAGCCGGUCUGAUGAGUCUAAUAACAGACGAAACAGC [AAUAAC] | 0.221 ± 0.049 | 1.979 ± 0.0049 | 0.377 ± 0.048 | 1.99 ± 0.035
18 | GCUGUCACCGGUGCUUGGUACGUUAUAUUCAGCCGGUCUGAUGAGUCUAAUAAGAGACGAAACAGC [AAUAAG] | 0.271 ± 0.2 | 1.9 ± 0.024 | 0.323 ± 0.13 | 1.98 ± 0.038
19 | GCUGUCACCGGUGCUUGGUACGUUAUAUUCAGCCGGUCUGAUGAGUCUAAGUUGAGACGAAACAGC [AAGUUG] | 0.479 ± 0.061 | 1.914 ± 0.013 | 0.582 ± 0.24 | 2.02 ± 0.054
20 | GCUGUCACCGGUGCUUGGUACGUUAUAUUCAGCCGGUCUGAUGAGUCUAAGUUAAGACGAAACAGC [AAGUUA] | 0.382 ± 0.14 | 1.973 ± 0.0048 | 0.443 ± 0.016 | 2.01 ± 0.031
21 | GCUGUCACCGGUGCUUGGUACGUUAUAUUCAGCCGGUCUGAUGAGUCUUAGUUGAGACGAAACAGC [UAGUUG] | 0.194 ± 0.067 | 1.768 ± 0.016 | 0.229 ± 0.0032 | 1.96 ± 0.021
